Assays:
[1] = target: complement factor C1q (purified recombinant C1q) (UniProt P02745); assay: flow cytometry, C1q binding to antibody-coated PBMCs, FITC anti-C1q; antibody 75.0 µg/ml
[2] = target: complement factor C1q (purified recombinant C1q) (UniProt P02745); assay: flow cytometry, C1q binding to antibody-coated PBMCs, FITC anti-C1q; antibody 150 µg/ml
[3] = target: complement factor C1q (purified recombinant C1q) (UniProt P02745); assay: flow cytometry, C1q binding to antibody-coated PBMCs, FITC anti-C1q; antibody 37.5 µg/ml
[4] = target: complement factor C1q (purified recombinant C1q) (UniProt P02745); assay: flow cytometry, C1q binding to antibody-coated PBMCs, FITC anti-C1q; antibody 2.3 µg/ml
[5] = target: complement factor C1q (purified recombinant C1q) (UniProt P02745); assay: flow cytometry, C1q binding to antibody-coated PBMCs, FITC anti-C1q; antibody 1.2 µg/ml
[6] = target: complement factor C1q (purified recombinant C1q) (UniProt P02745); assay: flow cytometry, C1q binding to antibody-coated PBMCs, FITC anti-C1q; antibody 9.4 µg/ml
[7] = target: complement factor C1q (purified recombinant C1q) (UniProt P02745); assay: flow cytometry, C1q binding to antibody-coated PBMCs, FITC anti-C1q; antibody 18.8 µg/ml
[8] = target: complement factor C1q (purified recombinant C1q) (UniProt P02745); assay: flow cytometry, C1q binding to antibody-coated PBMCs, FITC anti-C1q; antibody 4.7 µg/ml

complement factor C1q (purified recombinant C1q), sequence (P02745 23-245, chain 1 of 3): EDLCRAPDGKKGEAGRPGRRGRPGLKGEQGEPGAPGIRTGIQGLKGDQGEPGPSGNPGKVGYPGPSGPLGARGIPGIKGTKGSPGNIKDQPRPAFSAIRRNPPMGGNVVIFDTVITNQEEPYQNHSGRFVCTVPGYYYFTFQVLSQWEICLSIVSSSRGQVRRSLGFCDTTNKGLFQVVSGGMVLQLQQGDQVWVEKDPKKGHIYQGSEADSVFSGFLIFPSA
complement factor C1q (purified recombinant C1q), sequence (P02746 28-253, chain 2 of 3, further chain): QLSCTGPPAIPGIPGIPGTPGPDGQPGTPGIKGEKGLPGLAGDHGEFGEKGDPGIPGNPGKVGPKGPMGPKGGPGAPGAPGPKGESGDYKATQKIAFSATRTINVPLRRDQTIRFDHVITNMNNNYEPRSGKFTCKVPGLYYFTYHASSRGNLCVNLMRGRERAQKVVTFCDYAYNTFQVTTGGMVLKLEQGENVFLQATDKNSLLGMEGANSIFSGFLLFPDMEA
complement factor C1q (purified recombinant C1q), sequence (P02747 29-245, chain 3 of 3, further chain): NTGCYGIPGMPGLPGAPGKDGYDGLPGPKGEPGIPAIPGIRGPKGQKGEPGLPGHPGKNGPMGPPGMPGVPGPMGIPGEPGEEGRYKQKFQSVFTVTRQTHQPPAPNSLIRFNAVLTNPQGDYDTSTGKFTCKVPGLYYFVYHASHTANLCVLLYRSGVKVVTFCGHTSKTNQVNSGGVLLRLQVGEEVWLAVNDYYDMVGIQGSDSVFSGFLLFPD

| Mean fluorescence intensity [1] [MFI] | Mean fluorescence intensity [2] [MFI] | Mean fluorescence intensity [3] [MFI] | Mean fluorescence intensity [4] [MFI] | Mean fluorescence intensity [5] [MFI] | Mean fluorescence intensity [6] [MFI] | Mean fluorescence intensity [7] [MFI] | Mean fluorescence intensity [8] [MFI] | Substance |
| --- | --- | --- | --- | --- | --- | --- | --- | --- |
| 766 | 782 | 732 | 371 | 302 | 541 | 672 | 491 | ATG (Tecelac) (antibody) |
| 200 | 199 | 205 | 199 | 193 | 210 | 217 | 198 | humanized B-F5 H37L/L4M IgG1 (BT061) (antibody) |

— patent US20110059082A1
